Experiment [1] concerns the target COMA-MIND (K. lactis COMA bound with MIND-C1) (Kluyveromyces lactis) (UniProt Q6CUE5). As to the kind of experiment: native MS; nanoflow electrospray of intact assemblies in 200 mM ammonium acetate pH 6.7-7.3 or 7.4; higher micromolar concentrations (COMA ~3 or ~6 uM; COMA-Nkp1-Nkp2 ~3 uM).
Experiment [2] addresses COMA (K. lactis, full length: Ame1, Ctf19, Mcm21, Okp1) (Kluyveromyces lactis) (UniProt Q6CUE5). As to the kind of experiment: SEC-MALS; COMA injected at ~43 uM (COMA dimer) on Superdex 200 10/300; max. dimeric COMA concentration in the principal peak 2.4 uM.
Experiment [3] has the same target. The experiment can be described thus: native MS; nanoflow electrospray of intact assemblies in 200 mM ammonium acetate pH 6.7-7.3 or 7.4; higher micromolar concentrations (COMA ~3 or ~6 uM; COMA-Nkp1-Nkp2 ~3 uM).
For a further experiment, the system named is S. cerevisiae clones. As to the kind of experiment: dilution-series growth assay on solid YPD agar with benomyl. The conditions noted are these: 20 μg/ml benomyl. The format is cell-based. The source says: For vegetative growth assays on solid agar, we serially diluted our mitotically cycling S. cerevisiae clone suspensions to an absorbance at 600 nm (A600) of 0.4, in 96‐well plates (Nunc; Thermo Fisher Scientific). From this suspension, we sequentially fourfold diluted suspensions with minimal synthetic complete medium row‐wise (Fig 8A and C; Appendix Fig S9A, B and E). We spotted S. cerevisiae suspensions with a sterilized 48‐head metal pinner (V & P Scientific, Inc.). We prepared our solid YPD agar that contained benomyl with a final concentration of 20 μg/ml benomyl (Sigma‐Aldrich). We did our growth experiments with S. cerevisiae clones that encode Mad1 fused to an auxin‐inducible degron (Appendix Fig S9E) on solid yeast‐extract peptone (YEP) agar with 2% (w/v) raffinose and 2% (w/v) galactose, and 1 mM of the synthetic auxin analogue 1‐napthylic acetic acid (NAA; Carl Roth), similarly as described (Nishimura et al, 2009). To prepare S. cerevisiae extracts for our Western blot that we show an image in Appendix Fig S9F, we grew cultures in YEP with 2% (w/v) raffinose and 2% (w/v) galactose to an A600 of 0.3. After the addition of NAA to a concentration of 1 mM, we collected cells from cultures after specific time points (Appendix Fig S9F) by centrifugation.

Experiment [4] has as its target T1, full-length Ctf19-Mcm21 (K. lactis) (Kluyveromyces lactis, UniProt Q6CRN7 1-270; Q6CVQ9 1-293).
T1 chain 1: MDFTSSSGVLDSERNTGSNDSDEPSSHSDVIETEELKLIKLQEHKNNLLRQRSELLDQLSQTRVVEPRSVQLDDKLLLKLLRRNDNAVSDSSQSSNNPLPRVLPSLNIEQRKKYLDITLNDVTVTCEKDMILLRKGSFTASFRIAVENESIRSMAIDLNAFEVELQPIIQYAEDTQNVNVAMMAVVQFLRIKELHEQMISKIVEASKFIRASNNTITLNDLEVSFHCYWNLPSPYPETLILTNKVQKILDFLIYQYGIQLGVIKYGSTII
T1 chain 2: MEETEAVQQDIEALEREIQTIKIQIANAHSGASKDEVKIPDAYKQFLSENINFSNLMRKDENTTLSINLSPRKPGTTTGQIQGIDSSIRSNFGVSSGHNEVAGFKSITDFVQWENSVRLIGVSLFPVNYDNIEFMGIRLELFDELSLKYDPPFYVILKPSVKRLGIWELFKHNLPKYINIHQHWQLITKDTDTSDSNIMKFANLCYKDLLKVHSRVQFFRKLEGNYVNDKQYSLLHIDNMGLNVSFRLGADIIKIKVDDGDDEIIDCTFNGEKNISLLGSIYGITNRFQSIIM
As to the kind of experiment: MST.

Data on four molecules can be found in paper PMC5709738 (The EMBO Journal, 2017).

For “COMA-MIND (K. lactis COMA bound with MIND-C1) (from UniProt Q6CUE5 1-292; Q6CRN7 1-270; Q6CVQ9 1-293; Q6CJY0 1-383) (complex)”, in experiment [1], the stoichiometry N is 2.

In the case of “COMA (K. lactis, full length: Ame1, Ctf19, Mcm21, Okp1) (from UniProt Q6CUE5 1-292; Q6CRN7 1-270; Q6CVQ9 1-293; Q6CJY0 1-383) (complex)”, the stoichiometry N in experiment [2] and in experiment [3] was 2 throughout.

With `CCCCNC(=O)n1c(NC(=O)OC)nc2ccccc21` [benomyl], in the experiment on S. cerevisiae clones (Okp1_cmΔ and Okp1_cmΔnnΔ mutants, solid YPD agar, elevated temperature), the “benomyl sensitivity (growth)” value is listed as “sensitive to benomyl”. In addition, in the experiment with S. cerevisiae clones (Okp1_cmΔ cnn1Δ mutant compared with Okp1_cmΔ or cnn1Δ, 37°C), the “growth in the presence of benomyl” value was “reduced growth”.

B1: F329A (peptide)
chain: SNEIYQQDKIDANLKLKTDF
modifications: synthetic peptide; terminal chemistry not stated
Consider B1, for which binding in experiment [4] was characterised by a dissociation constant (Kd) of 25.3 µM.
